Experimental data as given in the supplement of paper PMC6379048.

Columns and labels:
Assay in all cases: EC50 of free RNA motif oligo competing protein binding to immobilised probe
CPSF2 = target: T1, CPSF2 (UniProt Q9P2I0)
T1 sequence: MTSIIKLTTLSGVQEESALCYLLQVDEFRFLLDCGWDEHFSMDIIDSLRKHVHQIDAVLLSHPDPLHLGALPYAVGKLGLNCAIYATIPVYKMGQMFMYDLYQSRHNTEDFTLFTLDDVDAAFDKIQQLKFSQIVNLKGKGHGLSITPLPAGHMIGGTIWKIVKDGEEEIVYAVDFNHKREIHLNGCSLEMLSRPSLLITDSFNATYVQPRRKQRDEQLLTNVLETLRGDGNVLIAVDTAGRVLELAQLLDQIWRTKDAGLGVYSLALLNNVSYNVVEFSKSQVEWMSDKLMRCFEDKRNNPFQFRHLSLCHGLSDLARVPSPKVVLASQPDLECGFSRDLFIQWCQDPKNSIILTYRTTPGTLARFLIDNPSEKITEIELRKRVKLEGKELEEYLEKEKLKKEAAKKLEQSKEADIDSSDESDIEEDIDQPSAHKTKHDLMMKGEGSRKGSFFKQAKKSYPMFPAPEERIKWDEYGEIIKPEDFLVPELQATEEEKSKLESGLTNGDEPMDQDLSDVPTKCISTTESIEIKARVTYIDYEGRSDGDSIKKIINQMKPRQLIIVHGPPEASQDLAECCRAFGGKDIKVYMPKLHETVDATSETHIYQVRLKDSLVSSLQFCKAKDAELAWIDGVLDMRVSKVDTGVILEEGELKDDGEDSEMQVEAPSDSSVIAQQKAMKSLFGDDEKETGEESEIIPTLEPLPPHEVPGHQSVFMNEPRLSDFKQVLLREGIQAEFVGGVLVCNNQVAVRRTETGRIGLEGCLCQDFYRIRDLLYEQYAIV
In short: (§1)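 Kd was calculated as EC50, taken from a four-parameter log-logistic fit, multiplied by a protein-dependent depletion factor. The assay used HEK293-FT lysate (2.5 mg protein/well) pre-incubated for 1 h at 4°C with free RNA oligos (0 nM to 30 μM), then incubated for 30 min at 4°C with the matching oligos bound through a 5′-amino-C6 linker to NHS-Sepharose beads. Bound proteins were measured by label-free LC-MS/MS and normalised to the control.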

CSTF2 = target: T2, CSTF2 (UniProt P33240)
T2 sequence: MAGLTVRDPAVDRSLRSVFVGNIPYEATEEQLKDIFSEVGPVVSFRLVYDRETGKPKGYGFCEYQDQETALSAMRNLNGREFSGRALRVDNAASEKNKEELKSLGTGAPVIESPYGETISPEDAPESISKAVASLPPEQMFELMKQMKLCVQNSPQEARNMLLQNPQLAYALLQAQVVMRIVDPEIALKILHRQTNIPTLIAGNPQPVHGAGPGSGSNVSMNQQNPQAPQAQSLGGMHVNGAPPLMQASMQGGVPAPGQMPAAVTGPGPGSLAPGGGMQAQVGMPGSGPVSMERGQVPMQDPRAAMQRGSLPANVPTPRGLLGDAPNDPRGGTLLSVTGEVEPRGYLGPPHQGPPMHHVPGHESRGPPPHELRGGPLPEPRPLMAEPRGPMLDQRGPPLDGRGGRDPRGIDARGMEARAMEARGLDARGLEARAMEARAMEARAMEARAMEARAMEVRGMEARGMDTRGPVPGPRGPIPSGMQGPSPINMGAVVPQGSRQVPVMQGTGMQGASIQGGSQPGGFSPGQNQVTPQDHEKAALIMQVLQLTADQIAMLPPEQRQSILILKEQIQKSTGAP
In short: as §1

ELAVL2 = ELAVL2 (UniProt Q12926)
ELAVL2, sequence (Q12926 whole entry): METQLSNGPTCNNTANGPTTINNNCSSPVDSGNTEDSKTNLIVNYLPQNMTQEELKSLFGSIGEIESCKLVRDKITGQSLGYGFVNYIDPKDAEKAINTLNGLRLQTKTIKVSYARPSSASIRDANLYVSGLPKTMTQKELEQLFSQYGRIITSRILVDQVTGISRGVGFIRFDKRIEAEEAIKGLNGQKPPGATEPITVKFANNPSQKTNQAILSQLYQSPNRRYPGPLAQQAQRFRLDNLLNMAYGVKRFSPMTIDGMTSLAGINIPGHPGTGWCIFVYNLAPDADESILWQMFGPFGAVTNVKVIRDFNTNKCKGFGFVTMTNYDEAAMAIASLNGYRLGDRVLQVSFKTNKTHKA
In short: as §1

FIP1L1 = target: T3, FIP1L1 (UniProt Q6UN15)
T3 sequence: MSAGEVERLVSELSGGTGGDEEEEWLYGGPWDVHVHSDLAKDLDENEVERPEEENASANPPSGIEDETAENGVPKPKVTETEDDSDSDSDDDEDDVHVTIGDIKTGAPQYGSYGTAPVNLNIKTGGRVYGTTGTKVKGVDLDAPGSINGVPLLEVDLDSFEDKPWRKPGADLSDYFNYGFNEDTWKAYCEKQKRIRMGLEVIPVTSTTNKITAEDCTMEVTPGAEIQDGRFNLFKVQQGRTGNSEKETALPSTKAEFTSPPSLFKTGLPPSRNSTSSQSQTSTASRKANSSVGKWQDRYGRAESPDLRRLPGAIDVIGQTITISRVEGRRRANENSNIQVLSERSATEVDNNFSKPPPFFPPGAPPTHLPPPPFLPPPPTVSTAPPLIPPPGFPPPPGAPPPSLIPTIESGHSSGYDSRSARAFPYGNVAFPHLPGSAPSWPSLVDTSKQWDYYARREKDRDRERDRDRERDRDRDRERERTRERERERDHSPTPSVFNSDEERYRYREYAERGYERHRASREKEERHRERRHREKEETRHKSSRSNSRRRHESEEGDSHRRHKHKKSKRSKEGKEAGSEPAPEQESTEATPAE
In short: as §1

LSM4 = target: T4, LSM4 (UniProt Q9Y4Z0)
T4 sequence: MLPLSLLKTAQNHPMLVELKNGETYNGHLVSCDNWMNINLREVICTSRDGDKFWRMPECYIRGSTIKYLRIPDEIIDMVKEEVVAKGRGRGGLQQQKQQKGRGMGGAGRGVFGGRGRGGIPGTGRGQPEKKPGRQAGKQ
In short: as §1

SLIRP = SLIRP (UniProt Q9GZT3)
In short: as §1

Sequence | EC50 (CPSF2) [nM] | EC50 (CSTF2) [nM] | EC50 (ELAVL2) [nM] | EC50 (FIP1L1) [nM] | EC50 (LSM4) [nM] | EC50 (SLIRP) [nM]
AAUAAA | 68.3 | 83.9 | 9740 | 64.8 | 465 | 1580
CUGUCCU | – | – | – | – | – | 1530
UAUUUAU | 1510 | 463 | 3840 | 1390 | 599 | –
